Where two headings read alike, the source gives them in different places. Values belong to the molecule of their own block, whether it stands above or below them.
Legend:
[1] = target: Full length activated FXIIa (α‐FXIIa) (UniProt P00748)
[2] = target: Full length activated FXIIa (α‐FXIIa) (UniProt P00748); remark: listed apart in the source
α‐FXIIa [3] = target: T1, α‐FXIIa (Homo sapiens, UniProt P00748); experiment: α‐FXIIa enzymatic assay (S‐2302 chromogenic substrate cleavage, pNA release); format: biochemical; conditions: CTI variant proteins 10^−8 M to 10^−5 M, 200 μM S‐2302, 10 nM α‐FXIIa, 33 °C, initial rate of first 30 min, A405; SE of the fit, n = 3–5 independent experiments; SEM
T1 construct: purchased Enzyme Research Laboratories (Swansea, UK)
T1 sequence (P00748 373-615 limits assumed): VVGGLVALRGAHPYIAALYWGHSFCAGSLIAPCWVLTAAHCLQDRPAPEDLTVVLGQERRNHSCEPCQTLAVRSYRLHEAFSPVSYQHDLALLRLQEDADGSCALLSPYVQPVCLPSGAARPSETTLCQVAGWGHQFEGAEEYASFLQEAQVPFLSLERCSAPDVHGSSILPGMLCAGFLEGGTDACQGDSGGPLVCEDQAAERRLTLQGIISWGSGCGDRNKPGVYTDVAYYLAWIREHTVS
T1 sequence (P00748 20-372 partner limits assumed): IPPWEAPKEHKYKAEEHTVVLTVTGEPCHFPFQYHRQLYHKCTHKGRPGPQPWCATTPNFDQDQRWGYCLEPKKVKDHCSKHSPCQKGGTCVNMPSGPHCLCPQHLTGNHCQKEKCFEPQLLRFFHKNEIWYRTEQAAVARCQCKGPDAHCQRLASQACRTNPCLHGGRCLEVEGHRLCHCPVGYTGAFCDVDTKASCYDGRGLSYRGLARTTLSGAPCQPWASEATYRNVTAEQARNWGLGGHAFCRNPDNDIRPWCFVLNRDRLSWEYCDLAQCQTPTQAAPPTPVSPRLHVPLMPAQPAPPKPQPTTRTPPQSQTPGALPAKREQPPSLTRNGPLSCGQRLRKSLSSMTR
Protocol: (§1) The enzymatic activity of α‐FXIIa was measured by monitoring the amount of pNA chromophore released from substrate H‐D‐Pro‐Phe‐Arg‐pNA (S‐2302). Assays were performed in a 100‐μL volume at 33 °C in 96‐well plates in a Perkin Elmer (Seer Green, UK) Envision plate reader, and pNA release was followed over a period of 6 h by reading the absorbance at 405 nm. Absorbance values were converted to pNA concentrations by comparison with a standard curve obtained under exactly the same instrument conditions. All absorbance values were within the linear measurement range of the instrument. Initial rates were calculated on the basis of the first 30 min of incubation. To assess the K M, concentrations of substrate peptide between 0.1 mM and 0.6 mM were incubated with 10 nM α‐FXIIa, enzymatic activity was measured as described above, and data were analyzed by non‐linear regression with the Michaelis–Menten algorithm (GRAPHPAD PRISM, version 6.04). To assess the inhibitory mechanism of CTI, 30 nM CTI was incubated with these same concentrations of substrate peptide, the reaction was initiated by the addition of 10 nM α‐FXIIa, enzymatic activity was measured as described above, and data were analyzed by non‐linear regression with the Michaelis–Menten algorithm (GRAPHPAD PRISM, version 6.04) and by linear regression after Lineweaver–Burk transformation. To assay inhibitors, concentrations of CTI variant proteins between 10^−8 M and 10^−5 M or concentrations of peptides between 10^−6 M and 10^−3 M were incubated with 200 μM substrate peptide, the reaction was initiated by addition of 10 nM α‐FXIIa, enzymatic activity was measured as described above, and IC50 values were determined by non‐linear regression analysis (GRAPHPAD PRISM, version 6.04) using the log[inhibitor] versus response – variable slope algorithm with a bottom constraint.

α‐FXIIa [4] = target: T1, α‐FXIIa; experiment: Kinetic analysis of the CTI inhibitory mechanism (Michaelis–Menten / Lineweaver–Burk, S‐2302); format: biochemical; conditions: 0.1 to 0.6 mM substrate peptide, 10 nM α‐FXIIa
Protocol: as §1
Figure S3: analysis of CTI inhibitory mechanism
0.1 to 0.6 mM of substrate peptide was incubated without (open symbols) or with 30 nM CTI (closed symbols), after which 10 nM α -FXIIa (equalling to 1 pmol of enzyme) was added and enzyme activity was measured as described in the method section. Data were analysed by non-linear regression (top left panel) and linear regression after Lineweaver Burk […]

FXIa = conditions: previous reports; cited from earlier work
thrombin = conditions: previous reports; cited from earlier work
FIXa = conditions: cited from earlier work
Excerpt: (§2) The canonical docking pose that we observed for FXIIa–CTI is similar to the trypsin–CTI and HGFA–CTI complexes predicted by CLUSPRO, albeit that there are fewer interactions overall for trypsin and HGFA, owing to Asp60A (H1 pocket) being absent in these proteases.

kallikrein = conditions: cited from earlier work
Excerpt: as §2

FVIIa = conditions: cited from earlier work
[5] = target: Full length activated FXIIa (α‐FXIIa) (UniProt P00748); remark: listed apart in the source
Target sequence in this assay (P00748 20-615): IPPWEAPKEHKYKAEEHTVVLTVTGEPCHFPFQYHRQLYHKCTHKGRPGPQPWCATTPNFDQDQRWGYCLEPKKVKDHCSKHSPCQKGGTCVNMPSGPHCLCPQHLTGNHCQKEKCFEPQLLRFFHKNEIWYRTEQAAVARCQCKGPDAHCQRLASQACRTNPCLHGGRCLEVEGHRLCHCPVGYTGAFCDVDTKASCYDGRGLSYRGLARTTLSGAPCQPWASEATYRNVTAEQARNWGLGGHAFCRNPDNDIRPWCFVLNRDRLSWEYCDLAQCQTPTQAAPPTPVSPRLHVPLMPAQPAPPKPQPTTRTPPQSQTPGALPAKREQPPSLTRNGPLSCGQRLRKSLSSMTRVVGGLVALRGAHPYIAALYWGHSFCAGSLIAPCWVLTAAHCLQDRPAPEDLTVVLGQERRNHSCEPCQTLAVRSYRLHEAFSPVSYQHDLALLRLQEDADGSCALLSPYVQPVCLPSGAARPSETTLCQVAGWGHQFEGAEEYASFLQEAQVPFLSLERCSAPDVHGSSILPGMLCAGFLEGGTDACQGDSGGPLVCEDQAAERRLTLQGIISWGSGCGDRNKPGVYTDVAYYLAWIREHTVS

- IC50 of inhibition of α‐FXIIa enzymatic activity (S‐2302 cleavage) [1]: 110 nM
- pIC50 of inhibition of α‐FXIIa enzymatic activity (S‐2302 cleavage) [1]: 6.97
- pIC50 of inhibition of α‐FXIIa enzymatic activity (S‐2302 cleavage) [2]: 6.95
- pIC50 ± SE (α‐FXIIa [3]): 6.97 ± 0.04
- Inhibitory mechanism (α‐FXIIa [4]; 30 nM CTI): competitive inhibitory mechanism
- Ki (α‐FXIIa [4]; 30 nM CTI, Fig. S3): 29 ± 4 nM
B1: commercial corn trypsin inhibitor (CTI) (natural protein)
chain: SAGTSCVPGWAIPHNPLPSCRWYVTSRTCGIGPRLPWPELKRRCCRELADIPAYCRCTALSILMDGAIPPGPDAQLEGRLEDLPGCPREVQRGFAATLVTEAECNLATIS
- kcat (α‐FXIIa [4]; in the presence of 30 nM CTI, Fig. S3): 15 ± 2
- Km (α‐FXIIa [4]; in the presence of 30 nM CTI, Fig. S3, read-out: Km app): 301 ± 72 µM
- Inhibition of FXIa, in words (FXIa): weakly inhibits
- Inhibition of thrombin, in words (thrombin): does not inhibit
- Inhibition of FIXa, in words (FIXa): does not inhibit
- Inhibition of kallikrein, in words (kallikrein): does not inhibit
- Inhibition of FVIIa, in words (FVIIa): does not inhibit

- IC50 of inhibition of α‐FXIIa enzymatic activity (S‐2302 cleavage) [5]: 1100 µM
- pIC50 of inhibition of α‐FXIIa enzymatic activity (S‐2302 cleavage) [5]: 2.94
B2: CTI(23–43) synthetic peptide (peptide)
peptide: YVTSRTAGIGPRLPWPELKRR

Second part, the molecule before the results:

B3: CTI(21–42) synthetic peptide (peptide)
peptide: RWYVTSRTAGIGPRLPWPELKR
- IC50 of inhibition of α‐FXIIa enzymatic activity (S‐2302 cleavage) [5]: 200 µM
- pIC50 of inhibition of α‐FXIIa enzymatic activity (S‐2302 cleavage) [5]: 3.7

B4: CTI(20–44) synthetic peptide (peptide)
peptide: CRWYVTSRTAGIGPRLPWPELKRRC
- IC50 of inhibition of α‐FXIIa enzymatic activity (S‐2302 cleavage) [5]: 290 µM
- pIC50 of inhibition of α‐FXIIa enzymatic activity (S‐2302 cleavage) [5]: 3.54

B5: CTI(21–43) synthetic peptide (peptide)
peptide: RWYVTSRTAGIGPRLPWPELKRR
- IC50 of inhibition of α‐FXIIa enzymatic activity (S‐2302 cleavage) [5]: 460 µM
- pIC50 of inhibition of α‐FXIIa enzymatic activity (S‐2302 cleavage) [5]: 3.34

Reference: PMC5638086, “Assessment of the protein interaction between coagulation factor XII and corn trypsin inhibitor by molecular docking and biochemical validation” (Journal of Thrombosis and Haemostasis, 2017)
